This is an account of results in the RNAGym collection of RNA variant scans (doi:10.7554/elife.90254).

To fix the notation:
B1: LINE1-full (parent)
chain: UACGUAGGUGGUUUUCCCCUGAUAGUGCUAAGGGGGCCUGGAAGUUUGGACUGGGCAGAGCUCAACACAGCGUGGCAAAGUGGCUGUGGCUAGACUGCCUCUCUGGAUUCCUCGUCACUCAGCAGGGCAUCUCUGAGAGAAAUGCC

Variants of B1 are the subject of this data set. Kind of data set: self-cleavage, relative activity (ratio to wild type); higher = more cleavage; in vitro, sequencing; the parent is a self-cleaving ribozyme.
As for UACGUAGGUGGUUUUCCCCUGAUAGUGCUAAGGGGGCCUGGAAGUUUGGACUGGGCAGAGCUCAACACAGCGUGGCAAAGUGGCUGUGACCAGACUGCCUCUCUGGAUUCCUCGUCACUCAGCAGGGCAUCUCUGAGAGAAAUGCC [G89A U91C], the self-cleavage worked out at 0.05. For UACGUAGGUGGUUUUCCCCUGAUAGUGCUAAGGGGGCCUGGAAGUUUGGACUGGGCAGAGCUCAACACAGCGUGGCAAAGUGGCUGUGUCUAGACUGCCUCUCUGGAUUCCUCGUCGCUCAGCAGGGCAUCUCUGAGAGAAAUGCC [G89U A117G], the self-cleavage came to 0. As for UACGUAGGUGGUUUUCCCCUGAUAGUGCUAAGGGGGCCUGGAAGUUUGGACUGGGCAGAGCUCAACACAGCGUGGCAAAGUGGCUGUGACUAGACUGCCUCUCUGGAUUCCUCGUCUCUCAGCAGGGCAUCUCUGAGAGAAAUGCC [G89A A117U], the self-cleavage came out at 0.04. Take UACGUAGGUGGUUUUCCCCUGAUAGUGCUAAGGGGGCCUGGAAGUUUGGACUGGGCAGAGCUCAACACAGCGUGGCAAAGUGGCUGUGUCUAGACUGCCUCUCUGGAUUCCUCGUCACUCAGCAGGGCAUCUCGGAGAGAAAUGCC [G89U U134G]: the self-cleavage was found to be 0.04. Take UACGUAGGUGGUUUUCCCCUGAUAGUGCUAAGGGGGCCUGGAAGUUUGGACUGGGCAGAGCUCAACACAGCGUGGCAAAGUGGCUGUGACUAGACUGCCUCUCUGGAUGCCUCGUCACUCAGCAGGGCAUCUCUGAGAGAAAUGCC [G89A U109G]: the self-cleavage is 0.04. On to UACGUAGGUGGUUUUCCCCUGAUAGUGCUAAGGGGGCCUGGAAGUUUGGACUGGGCAGAGCUCAACACAGCGUGGCAAAGUGGCUGUGUCUAAACUGCCUCUCUGGAUUCCUCGUCACUCAGCAGGGCAUCUCUGAGAGAAAUGCC [G89U G93A], for which the self-cleavage is 0.04. For the variant UACGUAGGUGGUUUUCCCCUGAUAGUGCUAAGGGGGCCUGGAAGUUUGGACUGGGCAGAGCUCAACACAGCGUGGCAAAGUGGCUGUGCCUAGACUGCCUCUCUGGAUUCCUCGUCACUCAGCAGGGCACCUCUGAGAGAAAUGCC [G89C U130C], the self-cleavage is 0.09. For the variant UACGUAGGUGGUUUUCCCCUGAUAGUGCUAAGGGGGCCUGGAAGUUUGGACUGGGCAGAGCUCAACACAGCGUGGCAAAGUGGCUGUGACUAGACUGCCUCUCUGGAUUCCCCGUCACUCAGCAGGGCAUCUCUGAGAGAAAUGCC [G89A U112C], the self-cleavage is 0.05.

As to UACGUAGGUGGUUUUCCCCUGAUAGUGCUAAGGGGGCCUGGAAGUUUGGACUGGGCAGAGCUCAACACAGCGUGGCAAAGUGGCUGUGACUAGACUGCCUCUCUGGAUUCCUCGUCACUCGGCAGGGCAUCUCUGAGAGAAAUGCC [G89A A121G], the self-cleavage turned out to be 0.09. Under UACGUAGGUGGUUUUCCCCUGAUAGUGCUAAGGGGGCCUGGAAGUUUGGACUGGGCAGAGCUCAACACAGCGUGGCAAAGUGGCUGUCGCUAGACUGCCUCUCUAGAUUCCUCGUCACUCAGCAGGGCAUCUCUGAGAGAAAUGCC [G88C G105A] stands 0.06; under UACGUAGGUGGUUUUCCCCUGAUAGUGCUAAGGGGGCCUGGAAGUUUGGACUGGGCAGAGCUCAACACAGCGUGGCAAAGUGGCUGUGCCUAGACUGCCUCUCUGGAUUCCUCGUCACUCAGCAGGGCAUCUCUGGGAGAAAUGCC [G89C A136G], 0.06; under UACGUAGGUGGUUUUCCCCUGAUAGUGCUAAGGGGGCCUGGAAGUUUGGACUGGGCAGAGCUCAACACAGCGUGGCAAAGUGGCUGUGACUAGACUGCCUCUCUGGAUUCCUCGUCACUCAGCAGGGCAUCUCUGAGAGAAAAGCC [G89A U143A], 0.05. As for UACGUAGGUGGUUUUCCCCUGAUAGUGCUAAGGGGGCCUGGAAGUUUGGACUGGGCAGAGCUCAACACAGCGUGGCAAAGUGGCUGUGACUAGACUGCCUCCCUGGAUUCCUCGUCACUCAGCAGGGCAUCUCUGAGAGAAAUGCC [G89A U102C], the self-cleavage is 0.05. As for UACGUAGGUGGUUUUCCCCUGAUAGUGCUAAGGGGGCCUGGAAGUUUGGACUGGGCAGAGCUCAACACAGCGUGGCAAAGUGGCUGUGCCUAGACUGCCUCUCUGGAUUCCUCGUCACUCAGCGGGGCAUCUCUGAGAGAAAUGCC [G89C A124G], the self-cleavage worked out at 0.08.

Consider UACGUAGGUGGUUUUCCCCUGAUAGUGCUAAGGGGGCCUGGAAGUUUGGACUGGGCAGAGCUCAACACAGCGUGGCAAAGUGGCUGUCGCUAGACUGCCUCUCUGGAUUCCUCGUCACUCAGCACGGCAUCUCUGAGAGAAAUGCC [G88C G125C], for which the self-cleavage is 0.06. Turning to UACGUAGGUGGUUUUCCCCUGAUAGUGCUAAGGGGGCCUGGAAGUUUGGACUGGGCAGAGCUCAACACAGCGUGGCAAAGUGGCUGUGCCUAGACUGCCUCUCUGGAUUCCUCGUCACACAGCAGGGCAUCUCUGAGAGAAAUGCC [G89C U119A], the self-cleavage worked out at 0.02. Take UACGUAGGUGGUUUUCCCCUGAUAGUGCUAAGGGGGCCUGGAAGUUUGGACUGGGCAGAGCUCAACACAGCGUGGCAAAGUGGCUGUUGCUAGACUGCCCCUCUGGAUUCCUCGUCACUCAGCAGGGCAUCUCUGAGAGAAAUGCC [G88U U100C]: the self-cleavage was 0.04. In the case of UACGUAGGUGGUUUUCCCCUGAUAGUGCUAAGGGGGCCUGGAAGUUUGGACUGGGCAGAGCUCAACACAGCGUGGCAAAGUGGCUGUUGCUAGACUGCCUCUCCGGAUUCCUCGUCACUCAGCAGGGCAUCUCUGAGAGAAAUGCC [G88U U104C], the self-cleavage was found to be 0.05.

Take UACGUAGGUGGUUUUCCCCUGAUAGUGCUAAGGGGGCCUGGAAGUUUGGACUGGGCAGAGCUCAACACAGCGUGGCAAAGUGGCUGUCGCUAGACUGCCUCUCUGGAUUCCUCGUCACUCAGCAGGGCAUCUCUGAGAGGAAUGCC [G88C A140G]: the self-cleavage is 0. Take UACGUAGGUGGUUUUCCCCUGAUAGUGCUAAGGGGGCCUGGAAGUUUGGACUGGGCAGAGCUCAACACAGCGUGGCAAAGUGGCUGUGACUAGACUGCCUCUCUGGAUUCCUCGUCACUCAGCAGGGCAUCUUUGAGAGAAAUGCC [G89A C133U]: the self-cleavage stood at 0.03. As for UACGUAGGUGGUUUUCCCCUGAUAGUGCUAAGGGGGCCUGGAAGUUUGGACUGGGCAGAGCUCAACACAGCGUGGCAAAGUGGCUGUGACUAGACUGCCUCUCUGGGUUCCUCGUCACUCAGCAGGGCAUCUCUGAGAGAAAUGCC [G89A A107G], the self-cleavage stood at 0.01. Regarding UACGUAGGUGGUUUUCCCCUGAUAGUGCUAAGGGGGCCUGGAAGUUUGGACUGGGCAGAGCUCAACACAGCGUGGCAAAGUGGCUGUGUCUAGACUGCCUCUCUGGAUUCCUCGUCACUCAGCAGGGCAUCUCUGAGAGAAAUGCC [G89U], the self-cleavage is 0.01. Regarding UACGUAGGUGGUUUUCCCCUGAUAGUGCUAAGGGGGCCUGGAAGUUUGGACUGGGCAGAGCUCAACACAGCGUGGCAAAGUGGCUGUGCCUAGACUGCCUCUCUGGAUUCCUCGUCACUCAGCAGGGCAUCUCUGAGAGAAAUGCC [G89C], the self-cleavage was 0.04. Turning to UACGUAGGUGGUUUUCCCCUGAUAGUGCUAAGGGGGCCUGGAAGUUUGGACUGGGCAGAGCUCAACACAGCGUGGCAAAGUGGCUGUGACUAGACUGCCUCUCUGGAUUCCUCGUCACUCAGCAGGGCAUCUCUGAGAGAAAUGCC [G89A], the self-cleavage is 0.04.

Regarding UACGUAGGUGGUUUUCCCCUGAUAGUGCUAAGGGGGCCUGGAAGUUUGGACUGGGCAGAGCUCAACACAGCGUGGCAAAGUGGCUGUGACUAGACUGCCUCUCUGGAUUCCUCGUCACUCAGCAGGGCAUCUCUGAGAGGAAUGCC [G89A A140G], the self-cleavage came to 0.06. Consider UACGUAGGUGGUUUUCCCCUGAUAGUGCUAAGGGGGCCUGGAAGUUUGGACUGGGCAGAGCUCAACACAGCGUGGCAAAGUGGCUGUGUCUAGACUGCCUCUCUGGGUUCCUCGUCACUCAGCAGGGCAUCUCUGAGAGAAAUGCC [G89U A107G], for which the self-cleavage stood at 0.04. With UACGUAGGUGGUUUUCCCCUGAUAGUGCUAAGGGGGCCUGGAAGUUUGGACUGGGCAGAGCUCAACACAGCGUGGCAAAGUGGCUGUGUCUAGACUGCCUCUCUGGAUUCCUCGUCACUCAGCGGGGCAUCUCUGAGAGAAAUGCC [G89U A124G], the self-cleavage was 0.16. For the variant UACGUAGGUGGUUUUCCCCUGAUAGUGCUAAGGGGGCCUGGAAGUUUGGACUGGGCAGAGCUCAACACAGCGUGGCAAAGUGGCUGUGACUAGACUGCCUCUCUGGAUUCCUCGUCACUCAGCAGGGCAUCCCUGAGAGAAAUGCC [G89A U132C], the self-cleavage came to 0.06. On to UACGUAGGUGGUUUUCCCCUGAUAGUGCUAAGGGGGCCUGGAAGUUUGGACUGGGCAGAGCUCAACACAGCGUGGCAAAGUGGCUGUGUCUAGACUGCCUCUCUGGAUUCCUCGUCACUCAGCAAGGCAUCUCUGAGAGAAAUGCC [G89U G125A], for which the self-cleavage was 0.05. In the case of UACGUAGGUGGUUUUCCCCUGAUAGUGCUAAGGGGGCCUGGAAGUUUGGACUGGGCAGAGCUCAACACAGCGUGGCAAAGUGGCUGUGUCUAGACUGCCUCUCUGGAUUCCUCGUCACUCAGCAGGGCAUCUCUGAGAGAAGUGCC [G89U A142G], the self-cleavage amounted to 0.03. On to UACGUAGGUGGUUUUCCCCUGAUAGUGCUAAGGGGGCCUGGAAGUUUGGACUGGGCAGAGCUCAACACAGCGUGGCAAAGUGGCUGUGCCUAGACUGCCUCUCUGGAUUCCUCGUCACUCAGCAGGGCAUCUCUGAGGGAAAUGCC [G89C A138G], for which the self-cleavage turned out to be 0.07. For UACGUAGGUGGUUUUCCCCUGAUAGUGCUAAGGGGGCCUGGAAGUUUGGACUGGGCAGAGCUCAACACAGCGUGGCAAAGUGGCUGUGACUAGACUGCCUCUCUGGAUUCCUCGUCACUCAGCAGGGCAUCUCUGAAAGAAAUGCC [G89A G137A], the self-cleavage stood at 0.05. Regarding UACGUAGGUGGUUUUCCCCUGAUAGUGCUAAGGGGGCCUGGAAGUUUGGACUGGGCAGAGCUCAACACAGCGUGGCAAAGUGGCUGUGACUAGACUGCCUCUCAGGAUUCCUCGUCACUCAGCAGGGCAUCUCUGAGAGAAAUGCC [G89A U104A], the self-cleavage is 0.01.

As for UACGUAGGUGGUUUUCCCCUGAUAGUGCUAAGGGGGCCUGGAAGUUUGGACUGGGCAGAGCUCAACACAGCGUGGCAAAGUGGCUGUGUCUAGACUGCCUCUCUGGAUUCCUCGUCACUCAGGAGGGCAUCUCUGAGAGAAAUGCC [G89U C123G], the self-cleavage stood at 0.07. For UACGUAGGUGGUUUUCCCCUGAUAGUGCUAAGGGGGCCUGGAAGUUUGGACUGGGCAGAGCUCAACACAGCGUGGCAAAGUGGCUGUUGCUAGACUGCCUCUCUGGAUUCCUCGUCACUCAGCAGGGCAUCUCUGAGGGAAAUGCC [G88U A138G], the self-cleavage worked out at 0.06. Take UACGUAGGUGGUUUUCCCCUGAUAGUGCUAAGGGGGCCUGGAAGUUUGGACUGGGCAGAGCUCAACACAGCGUGGCAAAGUGGCUGUGCCUAGACUGCCUCUCUGGAUUCCUCGUCACUCACCAGGGCAUCUCUGAGAGAAAUGCC [G89C G122C]: the self-cleavage was found to be 0.02. For UACGUAGGUGGUUUUCCCCUGAUAGUGCUAAGGGGGCCUGGAAGUUUGGACUGGGCAGAGCUCAACACAGCGUGGCAAAGUGGCUGUCGCUAGACUGCCUCUCUGGAUUCCUCGUCACUCAGCAGGGCGUCUCUGAGAGAAAUGCC [G88C A129G], the self-cleavage is 0.12. Take UACGUAGGUGGUUUUCCCCUGAUAGUGCUAAGGGGGCCUGGAAGUUUGGACUGGGCAGAGCUCAACACAGCGUGGCAAAGUGGCUGUCGCUAGACUGCCUCUCUGGAUUCCUCGUCACUCAGCAGGGCAUCCCUGAGAGAAAUGCC [G88C U132C]: the self-cleavage amounted to 0.09. For UACGUAGGUGGUUUUCCCCUGAUAGUGCUAAGGGGGCCUGGAAGUUUGGACUGGGCAGAGCUCAACACAGCGUGGCAAAGUGGCUGUGACUUGACUGCCUCUCUGGAUUCCUCGUCACUCAGCAGGGCAUCUCUGAGAGAAAUGCC [G89A A92U] the value was 0.07.
